Measured values: US20190241648A1 (STATEN BIOTECHNOLOGY B V, published 2019)
Ends that are not written are not given here.

Legend:
Test in all cases: peptide microarray
ApoC3 peptide … S49L = target: T1, ApoC3 peptide … S49L (human, cyclic constrained)
T1 peptide: ARGWVTDGFSLLK
Procedure, shortened: (§1)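 Peptide microarrays of ApoC3-derived peptides incubated with antibody samples, then stained with goat anti-human IgG (Fc) DyLight680 (1:5000) and anti-HA DyLight800 (1:2000) control. Read-out by fluorescence scanning at intensities 7/7 (red/green); a secondary-only pre-stain checked background, HA frame peptides served as quality control.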

ApoC3 peptide … R40S = target: T2, ApoC3 peptide … R40S (human, not fully specified (bridges); also: cyclic constrained)
T2 peptide: ASGWVTDGFSSLK
Procedure, shortened: as §1

ApoC3 peptide … L50Y = target: T3, ApoC3 peptide … L50Y (human, not fully specified (bridges); also: cyclic constrained)
T3 peptide: ARGWVTDGFSSYK
Procedure, shortened: as §1

ApoC3 peptide … V43S = target: T4, ApoC3 peptide … V43S (human, not fully specified (bridges); also: cyclic constrained)
T4 peptide: ARGWSTDGFSSLK
Procedure, shortened: as §1

ApoC3 peptide … A39Y = target: T5, ApoC3 peptide … A39Y (human, not fully specified (bridges); also: cyclic constrained)
T5 peptide: YRGWVTDGFSSLK
Procedure, shortened: as §1

ApoC3 peptide … L50S = target: T6, ApoC3 peptide … L50S (human, not fully specified (bridges); also: cyclic constrained)
T6 peptide: ARGWVTDGFSSSK
Procedure, shortened: as §1

ApoC3 peptide … F47Q = target: T7, ApoC3 peptide … F47Q (human, not fully specified (bridges); also: cyclic constrained)
T7 peptide: ARGWVTDGQSSLK
Procedure, shortened: as §1

ApoC3 peptide … D45L = target: T8, ApoC3 peptide … D45L (human, cyclic constrained)
T8 peptide: ARGWVTLGFSSLK
Procedure, shortened: as §1

ApoC3 peptide … G41L = target: T9, ApoC3 peptide … G41L (human, also: cyclic constrained)
T9 peptide: ARLWVTDGFSSLK
Procedure, shortened: as §1

ApoC3 peptide … S48V = ApoC3 peptide … S48V (human, cyclic constrained)
Procedure, shortened: as §1

ApoC3 peptide … L50I = target: T10, ApoC3 peptide … L50I (human, not fully specified; cyclic constrained)
T10 peptide: ARGWVTDGFSSIK
Procedure, shortened: as §1

ApoC3 peptide … S48C = target: T11, ApoC3 peptide … S48C (human, not fully specified; cyclic constrained)
T11 peptide: ARGWVTDGFCSLK
Procedure, shortened: as §1

ApoC3 peptide … A39R = target: T12, ApoC3 peptide … A39R (human, not fully specified (bridges); also: cyclic constrained)
T12 peptide: RRGWVTDGFSSLK
Procedure, shortened: as §1

ApoC3 peptide … K51G = target: T13, ApoC3 peptide … K51G (human, thioether (positions not given here); also: cyclic constrained)
T13 peptide: ARGWVTDGFSSLG
Procedure, shortened: as §1

ApoC3 peptide … S49I = target: T14, ApoC3 peptide … S49I (human, cyclic constrained)
T14 peptide: ARGWVTDGFSILK
Procedure, shortened: as §1

ApoC3 peptide … S49T = target: T15, ApoC3 peptide … S49T (human, not fully specified (bridges); also: cyclic constrained)
T15 peptide: ARGWVTDGFSTLK
Procedure, shortened: as §1

ApoC3 peptide … G41Q = target: T16, ApoC3 peptide … G41Q (human, also: cyclic constrained)
T16 peptide: ARQWVTDGFSSLK
Procedure, shortened: as §1

ApoC3 peptide … K51M = target: T17, ApoC3 peptide … K51M (human, not fully specified; cyclic constrained)
T17 peptide: ARGWVTDGFSSLM
Procedure, shortened: as §1

ApoC3 peptide … G46R = target: T18, ApoC3 peptide … G46R (human, thioether (positions not given here); also: cyclic constrained)
T18 peptide: ARGWVTDRFSSLK
Procedure, shortened: as §1

ApoC3 peptide … V43G = target: T19, ApoC3 peptide … V43G (human, not fully specified; cyclic constrained)
T19 peptide: ARGWGTDGFSSLK
Procedure, shortened: as §1

ApoC3 peptide … G46N = target: T20, ApoC3 peptide … G46N (human, not fully specified (bridges); also: cyclic constrained)
T20 peptide: ARGWVTDNFSSLK
Procedure, shortened: as §1

ApoC3 peptide … A39C = target: T21, ApoC3 peptide … A39C (human, cyclic constrained)
T21 peptide: CRGWVTDGFSSLK
Procedure, shortened: as §1

ApoC3 peptide … W42C = target: T22, ApoC3 peptide … W42C (human, not fully specified (bridges); also: cyclic constrained)
T22 peptide: ARGCVTDGFSSLK
Procedure, shortened: as §1

ApoC3 peptide … W42V = target: T23, ApoC3 peptide … W42V (human, not fully specified (bridges); also: cyclic constrained)
T23 peptide: ARGVVTDGFSSLK
Procedure, shortened: as §1

ApoC3 peptide … W42L = target: T24, ApoC3 peptide … W42L (human, not fully specified (bridges); also: cyclic constrained)
T24 peptide: ARGLVTDGFSSLK
Procedure, shortened: as §1

ApoC3 peptide … F47D = target: T25, ApoC3 peptide … F47D (human, not fully specified (bridges); also: cyclic constrained)
T25 peptide: ARGWVTDGDSSLK
Procedure, shortened: as §1

ApoC3 peptide … R40F = target: T26, ApoC3 peptide … R40F (human, not fully specified (bridges); also: cyclic constrained)
T26 peptide: AFGWVTDGFSSLK
Procedure, shortened: as §1

ApoC3 peptide … S49P = target: T27, ApoC3 peptide … S49P (human, cyclic constrained)
T27 peptide: ARGWVTDGFSPLK
Procedure, shortened: as §1

ApoC3 peptide … L50V = target: T28, ApoC3 peptide … L50V (human, not fully specified (bridges); also: cyclic constrained)
T28 peptide: ARGWVTDGFSSVK
Procedure, shortened: as §1

ApoC3 peptide … R40W = target: T29, ApoC3 peptide … R40W (human, thioether (positions not given here); also: cyclic constrained)
T29 peptide: AWGWVTDGFSSLK
Procedure, shortened: as §1

B1: anti-ApoC3 antibody 14C7 (antibody, V domains shown)
VH: QVQVQESGPGLVKPSQTLSLTCTVSGGSITTNSYYWSWIRQPPGKGLEWMGAIDYSGDTYYSPSLKSRTSISRDTSKNQFTLQLTSVTPEDTAVYYCVSRIPTGEYWGQGTQVTVSS
VL: QTVVTQEPSLSVSPGGTVTLTCGLNSGSVTSSNYPDWYQQTPGQAPRLLIYNTNSRHSGVPSRFSGSISGNKAALTITGAQPEDEADYYCALYMGSDSVVFGGGTHLTVL
notes: it was detected with goat anti-human IgG (Fc); also called mAb 14C7; llama antibody 14C7
% of binding to wild-type peptide (ApoC3 peptide … S49L): 0% | % of binding to wild-type peptide (ApoC3 peptide … R40S): 54.7% | % of binding to wild-type peptide (ApoC3 peptide … L50Y): 0.38% | % of binding to wild-type peptide (ApoC3 peptide … V43S): 1.54% | % of binding to wild-type peptide (ApoC3 peptide … A39Y): 40.5% | % of binding to wild-type peptide (ApoC3 peptide … L50S): 0% | % of binding to wild-type peptide (ApoC3 peptide … F47Q): 0% | % of binding to wild-type peptide (ApoC3 peptide … D45L): 17.1% | % of binding to wild-type peptide (ApoC3 peptide … G41L): 6.27% | % of binding to wild-type peptide (ApoC3 peptide … S48V): 45.3% | % of binding to wild-type peptide (ApoC3 peptide … L50I): 9.47% | % of binding to wild-type peptide (ApoC3 peptide … S48C): 56.8% | % of binding to wild-type peptide (ApoC3 peptide … A39R): 89.4% | % of binding to wild-type peptide (ApoC3 peptide … K51G): 5.77% | % of binding to wild-type peptide (ApoC3 peptide … S49I): 0% | % of binding to wild-type peptide (ApoC3 peptide … S49T): 6.21% | % of binding to wild-type peptide (ApoC3 peptide … G41Q): 27.1% | % of binding to wild-type peptide (ApoC3 peptide … K51M): 11.1% | % of binding to wild-type peptide (ApoC3 peptide … G46R): 0.3% | % of binding to wild-type peptide (ApoC3 peptide … V43G): 0.12% | % of binding to wild-type peptide (ApoC3 peptide … G46N): 10.4% | % of binding to wild-type peptide (ApoC3 peptide … A39C): 77.5% | % of binding to wild-type peptide (ApoC3 peptide … W42C): 61.6% | % of binding to wild-type peptide (ApoC3 peptide … W42V): 48.3% | % of binding to wild-type peptide (ApoC3 peptide … W42L): 312% | % of binding to wild-type peptide (ApoC3 peptide … F47D): 0% | % of binding to wild-type peptide (ApoC3 peptide … R40F): 70.8% | % of binding to wild-type peptide (ApoC3 peptide … S49P): 0% | % of binding to wild-type peptide (ApoC3 peptide … L50V): 0.74% | % of binding to wild-type peptide (ApoC3 peptide … R40W): 38.8%
